From publication PMC6075780, “Interaction of lipoprotein QseG with sensor kinase QseE in the periplasm controls the phosphorylation state of the two-component system QseE/QseF in Escherichia coli” (PLoS Genetics, 2018)

T1: QseG-Strep (E. coli K-12, UniProt P0AD44 26-237, Cys26 predicted by the paper to be lipidated)
T1 sequence (looked up): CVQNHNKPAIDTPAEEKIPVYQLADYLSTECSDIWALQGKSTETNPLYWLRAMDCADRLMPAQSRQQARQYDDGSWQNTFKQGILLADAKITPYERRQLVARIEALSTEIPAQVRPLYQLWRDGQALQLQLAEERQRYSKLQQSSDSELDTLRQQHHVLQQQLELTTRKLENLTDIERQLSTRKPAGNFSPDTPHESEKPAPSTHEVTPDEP

B1: QseE-S58N-3×FLAG (natural protein, E. coli K-12, UniProt P52101 1-475, looked up)
chain: MKRWPVFPRSLRQLVMLAFLLILLPLLVLAWQAWQSLNALSDQAALVNRTTLIDARRNEAMTNAALEMERSYRQYCVLDDPTLAKVYQSQRKRYSEMLDAHAGVLPDDKLYQALRQDLHNLAQLQCNNSGPDAAAAARLEAFASANTEMVQATRTVVFSRGQQLQREIAERGQYFGWQSLVLFLVSLVMVLLFTRMIIGPVKNIERMINRLGEGRSLGNSVSFSGPSELRSVGQRILWLSERLSWLESQRHQFLRHLSHELKTPLASMREGTELLADQVVGPLTPEQKEVVSILDSSSRNLQKLIEQLLDYNRKQADSAVELENVELAPLVETVVSAHSLPARAKMMHTDVDLKATACLAEPMLLMSVLDNLYSNAVHYGAESGNICLRSSLHGARVYIDVINTGTPIPQEERAMIFEPFFQGSHQRKGAVKGSGLGLSIARDCIRRMQGELYLVDESGQDVCFRIELPSSKNTK
notes: Histidine kinase QseE of E. coli K-12 with the S58N exchange in the periplasmic loop; also called QseE-S58N variant; source: E. coli strain Z970, from plasmid pYG318-S58N, in lysate; not shown: 3×FLAG, C-terminal, kept

How the values were obtained:
T18-QseE (pYG246) = experiment: BACTH assay (bacterial two-hybrid, β-galactosidase read-out), homodimerization; settings: reporter strain BTH101; plasmids pYG246/pYG199_TM1; parent: est. 3600; read off a plot
QseG-Strep [1] = molecular target: T1, QseG-Strep; experiment: cell-based or functional assay
QseG-Strep [2] = molecular target: T1, QseG-Strep; experiment: pull-down; bait and prey from two compatible plasmids in E. coli Z970 (1 mM IPTG, 0.2% arabinose, 3 h); cleared lysates with MagStrep type3 XT beads 60 min at 4°C, washed 4× with buffer W; Western blot; settings: partners not purified

Molecule	response (T18-QseE (pYG246))	fold decrease in glmY'-lacZ β-galactosidase activity of the ΔqseE strain Z970 complemented with plasmid-encoded QseE-S58N (pYG221-S58N), against wild-type QseE (pYG221) (QseG-Strep [1])	fold reduction of co-purifying protein against wild-type QseE-3×FLAG (QseG-Strep [2])
T25-QseE (from UniProt P52101) F19L; L21H; I22R; L23P; L24P	1000 Miller units	–	–
B1	–	3 fold	~3 fold
